Patent US20110206694A1 (UNIVERSITY OF TENNESSEE RESEARCH FOUNDATION, published 2011)

Target: labeled control protein (BSA) (UniProt P02769 25-607)
Assay: membrane-immobilized flagellin bait, biotinylated prey, streptavidin-HRP

labeled control protein (BSA), sequence (P02769 25-607 limits assumed): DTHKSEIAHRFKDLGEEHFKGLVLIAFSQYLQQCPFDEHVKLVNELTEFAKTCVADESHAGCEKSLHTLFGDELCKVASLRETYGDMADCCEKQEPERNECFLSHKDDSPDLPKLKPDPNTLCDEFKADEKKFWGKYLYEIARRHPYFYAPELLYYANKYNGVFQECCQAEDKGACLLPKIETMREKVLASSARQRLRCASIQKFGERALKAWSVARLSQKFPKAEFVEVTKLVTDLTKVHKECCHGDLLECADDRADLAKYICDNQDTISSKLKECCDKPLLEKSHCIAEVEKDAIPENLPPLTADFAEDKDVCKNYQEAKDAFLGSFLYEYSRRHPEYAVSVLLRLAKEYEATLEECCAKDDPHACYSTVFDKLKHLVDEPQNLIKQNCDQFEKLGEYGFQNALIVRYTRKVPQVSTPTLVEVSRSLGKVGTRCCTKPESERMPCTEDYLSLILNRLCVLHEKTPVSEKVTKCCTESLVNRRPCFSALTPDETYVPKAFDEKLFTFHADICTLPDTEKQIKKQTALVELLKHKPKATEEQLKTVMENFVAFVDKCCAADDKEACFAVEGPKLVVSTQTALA

B1: flagellin FliC, serotype H48, of E. coli K-12 (MG1655) (other)
chain: AQVINTNSLSLITQNNINKNQSALSSSIERLSSGLRINSAKDDAAGQAIANRFTSNIKGLTQAARNANDGISVAQTTEGALSEINNNLQRVRELTVQATTGTNSESDLSSIQDEIKSRLDEIDRVSGQTQFNGVNVLAKNGSMKIQVGANDNQTITIDLKQIDAKTLGLDGFSVKNNDTVTTSAPVTAFGATTTNNIKLTGITLSTEAATDTGGTNPASIEGVYTDNGNDYYAKITGGDNDGKYYAVTVANDGTVTMATGATANATVTDANTTKATTITSGGTPVQIDNTAGSATANLGAVSLVKLQDSKGNDTDTYALKDTNGNLYAADVNETTGAVSVKTITYTDSSGAASSPTAVKLGGDDGKTEVVDIDGKTYDSADLNGGNLQTGLTAGGEALTAVANGKTTDPLKALDDAIASVDKFRSSLGAVQNRLDSAVTNLNNTTTNLSEAQSRIQDADYATEVSNMSKAQIIQQAGNSVLAKANQVPQQVLSLLQG
notes: also called FliCH48; FliC (H48)
binding result: no binding (tested: 10 µg/ml)
